B1: TBX6 (parent)
chain: AFLELPHGSGGSGYPAAPPAVPFA

Variants of: B1
Experiment: protein stability index of a GFP-peptide fusion (GPS, HEK-293T) (PSI 1-6); higher = more stable
Conditions: c terminus: a fixed tail appended
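Also: lentivirally expressed fusions sorted by FACS into six bins by GFP to DsRed ratio, PSI derived from sequencing read proportions per bin multiplied by bin number.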

Row | Variant | protein stability index
1 | L5V | 2.59
2 | L5G | 3.25
3 | L5W | 2.32
4 | L5I | 2.43
5 | L5D | 2.81
6 | L5N | 2.74
7 | L5S | 2.8
8 | L5Q | 2.83
9 | L5M | 2.69
10 | L5R | 2.71
11 | L5A | 2.79
12 | L5T | 2.61
13 | L5E | 2.83
14 | L5H | 2.9
15 | L5F | 2.29
16 | L5P | 3.17
17 | L5K | 2.59
18 | L5Y | 2.39
19 | L5C | 2.51
20 | P18L | 2.44
21 | P18D | 2.61
22 | P18T | 2.41
23 | P18C | 2.4
24 | P18S | 2.55

Row | Variant | protein stability index
25 | P18N | 2.19
26 | P18Y | 2.06
27 | P18F | 1.96
28 | P18M | 2.56
29 | P18G | 2.39
30 | P18E | 3.32
31 | P18I | 2.29
32 | P18Q | 2.22
33 | P18R | 2.17
34 | P18W | 2.03
35 | P18A | 1.94
36 | P18H | 2.23
37 | P18V | 2.01
38 | P18K | 2.4
39 | G10R | 2.07
40 | G10I | 2.55
41 | G10W | 1.25
42 | G10C | 2.55
43 | G10D | 2.67
44 | G10Q | 2.08
45 | G10F | 2.36
46 | G10P | 2.44
47 | G10V | 2.2
48 | G10L | 2.22

Row | Variant | protein stability index
49 | G10E | 2.96
50 | G10H | 2.34
51 | G10S | 2.7
52 | G10M | 2.3
53 | G10Y | 1.9
54 | G10K | 2.01
55 | G10A | 2.24
56 | G10T | 2.1
57 | G10N | 2.42
58 | S12V | 2.55
59 | S12T | 2.4
60 | S12Y | 1.63
61 | S12K | 2.17
62 | S12E | 2.74
63 | S12F | 1.91
64 | S12A | 2.33
65 | S12C | 2.12
66 | S12M | 2
67 | S12G | 2.31
68 | S12H | 2.22
69 | S12I | 2.28
70 | S12N | 2.62
71 | S12Q | 2.29
72 | S12D | 3

Row | Variant | protein stability index
73 | S12P | 2.08
74 | S12W | 2.55
75 | S12R | 2.27
76 | S12L | 2.18
77 | G11M | 2.01
78 | G11W | 2.32
79 | G11C | 1.9
80 | G11F | 2.19
81 | G11R | 2.3
82 | G11V | 2.12
83 | G11Y | 1.95
84 | G11I | 2.23
85 | G11Q | 2.2
86 | G11N | 2.07
87 | G11T | 2.11
88 | G11D | 2.89
89 | G11E | 2.77
90 | G11L | 1.93
91 | G11A | 2.5
92 | G11H | 2.15
93 | G11K | 2.07
94 | G11P | 2.28
95 | G11S | 2.7
96 | G8C | 2.19

Row | Variant | protein stability index
97 | G8D | 2.75
98 | G8V | 1.68
99 | G8T | 2.27
100 | G8E | 3.31
101 | G8H | 2.27
102 | G8L | 1.96
103 | G8P | 2.21
104 | G8K | 2.42
105 | G8I | 1.88
106 | G8A | 2.86
107 | G8R | 2.1
108 | G8Q | 2.02
109 | G8N | 2.53
110 | G8M | 2.57
111 | G8W | 1.93
112 | G8Y | 1.97
113 | G8S | 2.71
114 | G8F | 1.71
115 | A20Y | 2.03
116 | A20I | 2.11
117 | A20C | 2.68
118 | A20S | 2.52
119 | A20L | 2.21
120 | A20W | 2.46

Row | Variant | protein stability index
121 | A20M | 2.35
122 | A20V | 1.84
123 | A20G | 2.73
124 | A20K | 2.85
125 | A20R | 2.56
126 | A20N | 2.69
127 | A20T | 2.42
128 | A20H | 2.38
129 | A20D | 3.49
130 | A20Q | 2.99
131 | A20E | 2.87
132 | A20F | 2.4
133 | V21C | 2.09
134 | V21D | 3.46
135 | V21K | 3.23
136 | V21F | 1.97
137 | V21L | 2.58
138 | V21E | 3.02
139 | V21G | 3.31
140 | Y14V | 2.73
141 | Y14M | 2.84
142 | Y14H | 2.5
143 | Y14W | 2.21
144 | Y14E | 3.8

Row | Variant | protein stability index
145 | Y14A | 3.1
146 | Y14S | 3.25
147 | Y14T | 3.48
148 | Y14L | 2.85
149 | Y14C | 2.99
150 | Y14Q | 3.06
151 | Y14I | 2.65
152 | Y14D | 3.33
153 | Y14R | 3.03
154 | Y14K | 2.78
155 | Y14N | 3.54
156 | Y14F | 2.77
157 | Y14G | 3.04
158 | E4C | 2.17
159 | E4S | 2.19
160 | E4P | 3.3
161 | E4K | 1.68
162 | E4M | 1.56
163 | E4F | 1.4
164 | E4G | 2.13
165 | E4H | 2.12
166 | E4L | 2.21
167 | E4Y | 2.2
168 | E4A | 2.24

Row | Variant | protein stability index
169 | E4N | 2.09
170 | E4Q | 1.93
171 | E4V | 1.9
172 | E4I | 3.55
173 | E4T | 2.03
174 | E4R | 1.76
175 | E4D | 2.42
176 | P6T | 2.21
177 | P6D | 2.31
178 | P6N | 2.14
179 | P6S | 2.47
180 | P6I | 2.85
181 | P6H | 1.95
182 | P6Y | 2.36
183 | P6A | 1.64
184 | P6E | 2.62
185 | P6G | 1.62
186 | P6L | 2.4
187 | P6R | 1.53
188 | P6C | 1.34
189 | P6M | 2.29
190 | P6K | 2.37
191 | P6W | 2.9
192 | P6Q | 2

Row | Variant | protein stability index
193 | P6F | 2.09
194 | H7A | 2.29
195 | H7F | 1.85
196 | H7C | 2.12
197 | H7K | 2.69
198 | H7V | 2.45
199 | H7R | 2.67
200 | H7E | 2.83
201 | H7L | 1.97
202 | H7Q | 2.4
203 | H7D | 2.9
204 | H7P | 2.78
205 | H7M | 2.1
206 | H7I | 2.39
207 | H7S | 2.4
208 | H7N | 2.2
209 | H7Y | 2.34
210 | H7G | 2.74
211 | H7W | 1.56
212 | H7T | 2.41
213 | P15V | 2.08
214 | P15C | 1.8
215 | P15H | 1.93
216 | P15G | 2.21

Row | Variant | protein stability index
217 | P15R | 1.88
218 | P15Y | 2.23
219 | P15E | 3.03
220 | P15W | 1.99
221 | P15F | 1.54
222 | P15S | 2.38
223 | P15N | 2.48
224 | P15A | 2.27
225 | P15I | 2.01
226 | P15M | 1.77
227 | P15K | 2.15
228 | P15D | 2.81
229 | P15L | 1.94
230 | P15Q | 2.01
231 | P15T | 2.56
232 | G13M | 2.07
233 | G13L | 1.83
234 | G13I | 2.51
235 | G13V | 2.42
236 | G13W | 1.73
237 | G13H | 2.23
238 | G13R | 2.22
239 | G13T | 2.52
240 | G13Y | 1.66

Row | Variant | protein stability index
241 | G13F | 2.21
242 | G13Q | 2.89
243 | G13E | 2.61
244 | G13C | 2.83
245 | G13K | 2.58
246 | G13D | 3.02
247 | G13S | 2.44
248 | G13A | 2.87
249 | G13N | 2.4
250 | L3R | 3.47
251 | L3Y | 2.08
252 | L3W | 3.01
253 | L3Q | 3.43
254 | L3S | 2.87
255 | L3I | 2.28
256 | L3N | 3.57
257 | L3V | 2.93
258 | L3M | 2.41
259 | L3P | 4.08
260 | L3T | 3.23
261 | L3K | 3.45
262 | A16L | 2.32
263 | A16Y | 2.46
264 | A16H | 2.21

Row | Variant | protein stability index
265 | A16E | 3.49
266 | A16R | 2.29
267 | A16D | 2.09
268 | A16F | 2.18
269 | A16M | 2.17
270 | A16N | 2.43
271 | A16S | 2.22
272 | A16Q | 2.77
273 | A16C | 1.61
274 | A16W | 1.94
275 | A16K | 2.99
276 | A16I | 2.24
277 | A16T | 2.63
278 | A16V | 2.19
279 | A16G | 2.09
280 | A17I | 2.65
281 | A17T | 2.58
282 | A17G | 2.03
283 | A17Y | 2.36
284 | A17S | 2.46
285 | A17F | 1.99
286 | A17L | 2.57
287 | A17D | 2.85
288 | A17M | 2.17

Row | Variant | protein stability index
289 | A17E | 2.97
290 | A17N | 2.22
291 | A17C | 2.61
292 | A17V | 2.62
293 | A17W | 2.02
294 | A17K | 2.4
295 | A17Q | 2.54
296 | A17R | 2.37
297 | S9T | 2.1
298 | S9V | 2.17
299 | S9N | 2.61
300 | S9P | 2.61
301 | S9G | 2.41
302 | S9R | 2.68
303 | S9H | 2.02
304 | S9I | 2.12
305 | S9Y | 2.21
306 | S9C | 1.96
307 | S9F | 1.45
308 | S9K | 1.94
309 | S9W | 2.31
310 | S9E | 2.58
311 | S9A | 3.21
312 | S9Q | 2.63

Row | Variant | protein stability index
313 | S9L | 1.93
314 | S9D | 2.6
315 | S9M | 1.9
316 | P19S | 2.13
317 | P19R | 2.17
318 | P19T | 2.37
319 | P19C | 2.05
320 | P19E | 2.78
321 | P19V | 2.13
322 | P19A | 2.72
323 | P19G | 2.38
324 | P19Y | 1.48
325 | P19L | 2.25
326 | P19K | 2.07
327 | P19H | 2.23
328 | P19Q | 2.47
329 | P19I | 2.27
330 | P19M | 2.19
331 | P19F | 1.59
332 | P19N | 2.06
333 | P19W | 2.83
334 | P19D | 2.56

Source: the supplement of paper PMC10567573
